Data reported in PMC8442553 (Science (New York, N.Y.), 2019).

Key:
Assay in all cases: cryo-EM structure
Rsc3 = target: T1, Rsc3 (yeast, UniProt Q06639 1-885)
T1 sequence: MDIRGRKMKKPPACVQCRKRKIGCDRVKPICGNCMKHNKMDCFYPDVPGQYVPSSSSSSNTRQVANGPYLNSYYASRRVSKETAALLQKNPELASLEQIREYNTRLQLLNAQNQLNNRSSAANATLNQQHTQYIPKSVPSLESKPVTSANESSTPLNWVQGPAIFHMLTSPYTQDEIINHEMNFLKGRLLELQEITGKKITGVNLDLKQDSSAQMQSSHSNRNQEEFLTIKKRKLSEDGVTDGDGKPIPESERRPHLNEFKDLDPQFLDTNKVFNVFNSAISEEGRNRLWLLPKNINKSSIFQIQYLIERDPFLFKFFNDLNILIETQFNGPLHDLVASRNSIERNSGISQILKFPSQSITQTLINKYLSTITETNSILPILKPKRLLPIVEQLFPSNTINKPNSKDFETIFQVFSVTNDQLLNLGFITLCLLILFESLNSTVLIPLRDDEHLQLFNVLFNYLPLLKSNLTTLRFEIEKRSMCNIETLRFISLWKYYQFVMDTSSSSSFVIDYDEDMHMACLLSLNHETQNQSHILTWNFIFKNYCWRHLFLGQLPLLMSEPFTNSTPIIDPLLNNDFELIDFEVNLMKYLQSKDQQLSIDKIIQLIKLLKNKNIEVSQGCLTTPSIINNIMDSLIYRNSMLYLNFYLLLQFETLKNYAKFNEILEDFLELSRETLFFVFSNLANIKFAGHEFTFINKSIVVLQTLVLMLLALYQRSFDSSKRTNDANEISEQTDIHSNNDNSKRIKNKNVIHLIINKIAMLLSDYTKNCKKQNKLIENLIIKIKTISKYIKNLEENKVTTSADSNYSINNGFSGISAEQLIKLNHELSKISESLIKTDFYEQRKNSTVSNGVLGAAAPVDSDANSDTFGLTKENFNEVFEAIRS

Rsc30 = target: T2, Rsc30 (yeast, UniProt P38781 1-883)
T2 sequence: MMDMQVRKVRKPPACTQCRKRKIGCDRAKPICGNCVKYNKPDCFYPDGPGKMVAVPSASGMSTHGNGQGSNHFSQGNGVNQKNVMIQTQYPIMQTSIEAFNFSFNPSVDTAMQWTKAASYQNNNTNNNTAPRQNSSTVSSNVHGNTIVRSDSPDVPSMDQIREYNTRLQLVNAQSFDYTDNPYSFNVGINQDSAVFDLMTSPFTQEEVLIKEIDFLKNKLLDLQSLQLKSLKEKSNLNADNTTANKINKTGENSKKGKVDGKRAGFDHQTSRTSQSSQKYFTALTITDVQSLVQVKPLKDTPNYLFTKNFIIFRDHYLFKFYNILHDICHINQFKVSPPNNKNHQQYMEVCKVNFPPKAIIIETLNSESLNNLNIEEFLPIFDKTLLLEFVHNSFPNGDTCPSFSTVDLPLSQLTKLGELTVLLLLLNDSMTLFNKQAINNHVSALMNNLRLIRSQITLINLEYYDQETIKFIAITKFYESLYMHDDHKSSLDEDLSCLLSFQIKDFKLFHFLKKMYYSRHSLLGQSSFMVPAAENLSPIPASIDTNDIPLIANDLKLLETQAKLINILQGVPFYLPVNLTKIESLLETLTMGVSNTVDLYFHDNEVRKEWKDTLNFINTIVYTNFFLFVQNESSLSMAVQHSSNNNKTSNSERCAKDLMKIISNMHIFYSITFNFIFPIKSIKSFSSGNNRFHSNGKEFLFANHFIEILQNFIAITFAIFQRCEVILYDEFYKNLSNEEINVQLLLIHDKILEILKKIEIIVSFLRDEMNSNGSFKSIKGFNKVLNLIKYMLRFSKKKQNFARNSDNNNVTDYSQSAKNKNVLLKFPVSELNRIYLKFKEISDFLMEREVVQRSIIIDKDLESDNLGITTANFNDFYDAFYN

Sth1 = target: T3, Sth1 (yeast, UniProt P32597 1-1359)
T3 sequence: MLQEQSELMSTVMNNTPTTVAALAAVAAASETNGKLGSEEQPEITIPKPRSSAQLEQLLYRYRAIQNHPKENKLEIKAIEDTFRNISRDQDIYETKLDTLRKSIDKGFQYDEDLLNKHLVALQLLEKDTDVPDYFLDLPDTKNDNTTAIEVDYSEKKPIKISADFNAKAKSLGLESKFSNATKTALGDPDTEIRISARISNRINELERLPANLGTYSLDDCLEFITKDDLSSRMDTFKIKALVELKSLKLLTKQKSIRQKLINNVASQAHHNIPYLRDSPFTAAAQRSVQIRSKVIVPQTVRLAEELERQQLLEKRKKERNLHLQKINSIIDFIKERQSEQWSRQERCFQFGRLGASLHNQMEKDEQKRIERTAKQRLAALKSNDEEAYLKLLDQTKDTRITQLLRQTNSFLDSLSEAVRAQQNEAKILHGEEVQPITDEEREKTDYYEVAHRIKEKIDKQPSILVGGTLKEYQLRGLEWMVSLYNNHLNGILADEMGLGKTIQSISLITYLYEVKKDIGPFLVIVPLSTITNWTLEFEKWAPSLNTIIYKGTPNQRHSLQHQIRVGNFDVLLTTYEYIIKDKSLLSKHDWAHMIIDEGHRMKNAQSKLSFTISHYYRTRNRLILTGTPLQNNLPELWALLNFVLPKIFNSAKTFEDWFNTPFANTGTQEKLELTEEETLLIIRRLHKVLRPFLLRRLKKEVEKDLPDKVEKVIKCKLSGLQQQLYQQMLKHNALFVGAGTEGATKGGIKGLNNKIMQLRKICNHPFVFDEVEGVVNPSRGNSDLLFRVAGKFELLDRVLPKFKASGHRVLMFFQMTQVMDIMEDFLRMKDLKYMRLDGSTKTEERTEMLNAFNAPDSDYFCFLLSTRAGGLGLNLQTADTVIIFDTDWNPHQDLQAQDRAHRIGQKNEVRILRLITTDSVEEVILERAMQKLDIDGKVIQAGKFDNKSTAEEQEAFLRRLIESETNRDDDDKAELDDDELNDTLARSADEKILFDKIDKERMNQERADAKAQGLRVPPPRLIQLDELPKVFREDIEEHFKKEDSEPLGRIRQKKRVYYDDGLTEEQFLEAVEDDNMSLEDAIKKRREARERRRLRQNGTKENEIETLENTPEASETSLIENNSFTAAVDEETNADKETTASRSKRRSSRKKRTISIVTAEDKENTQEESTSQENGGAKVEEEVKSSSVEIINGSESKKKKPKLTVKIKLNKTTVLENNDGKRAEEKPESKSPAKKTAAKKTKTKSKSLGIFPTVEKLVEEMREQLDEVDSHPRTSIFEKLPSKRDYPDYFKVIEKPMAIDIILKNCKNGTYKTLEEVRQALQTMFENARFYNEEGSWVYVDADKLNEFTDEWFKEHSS

binding result (Rsc3): binds
binding result (Rsc30): binds
binding result (Sth1): binds
B1: Rsc9 (natural protein, yeast)
chain: MNSLASNTPLNGTPVSEAPATSSEPVNMFETMVANPIKVSRLQSNGVLTGPAANTKSIHYSLANFNVFQSLPKETARGVDDLTRMEMALLSGIPEEIKWSLKKYLTYSNKAPYMISLRTLPDLLPLFKTFILPLERIVEGLNKSSICDSKAMDSLQMGLNALLILRNLAQDTDSVQILVKDREIKSFILFILKKFQCVATGDNKWQLYEGNATFFNELTHYTLDLMEAISSYIAPAMKDDHYFQTLVSILNYTKDRYMVISILRSLSRLLVRSKANEESAADNLDHKTLSLIVSFLLLECDSELIIASLDFLYQYILPGSQRITELFKSKECSLILEATLPNLLSYNIATPDYHLLQKHKIRLIKRLKPPAPKEPPNLSEDLFQQLFKLNEPLRSTAWLRCCFEPVQEAEFTQISLWRSYESKFGQPVRESGRKLLPAVEFIKNVSNAFNNAAAIVITDPVTGKKRFVIKGIQPRFKALGIADGERESQVPISALKSKFLNDSKEITPARQNSIPEVKFPQELSDVSKVACTFLCLLSNDTDDGAGSAFCQRIRPLVLHKLADIPPLTLALSEYMENTSGL
